Data published in patent US20240255522A1 (published 2024).
Where no end group is shown, it is not given here.

Tests used:
[1] = target: HLA-DRB1*11:01 MHCII molecule (human); experiment: saturation binding ELISA
[2] = target: HLA-DRB1*09:01 MHCII molecule (human); experiment: saturation binding ELISA
[3] = target: HLA-DRB1*08:01 MHCII molecule (human); experiment: saturation binding ELISA
[4] = target: HLA-DRB1*15:01 MHCII molecule (human); experiment: saturation binding ELISA
[5] = target: HLA-DRB1*01:01 MHCII molecule (human); experiment: saturation binding ELISA
[6] = target: HLA-DRB1*04:01 MHCII molecule (human); experiment: saturation binding ELISA
[7] = target: HLA-DRB1*11:01 MHCII molecule (human); experiment: saturation binding ELISA; pH 5
[8] = target: HLA-DRB1*09:01 MHCII molecule (human); experiment: saturation binding ELISA; pH 5
[9] = target: HLA-DRB1*08:01 MHCII molecule (human); experiment: saturation binding ELISA; pH 5
[10] = target: HLA-DRB1*15:01 MHCII molecule (human); experiment: saturation binding ELISA; pH 5
[11] = target: HLA-DRB1*01:01 MHCII molecule (human); experiment: saturation binding ELISA; pH 5
[12] = target: HLA-DRB1*04:01 MHCII molecule (human); experiment: saturation binding ELISA; pH 5
[13] = target: HLA-DRB1*01:01 MHCII molecule (human); experiment: saturation binding ELISA; pH 5; second sample

In the case of PVSKMRMATPLLMQA (also: biotinylated, position not given here) [biotinylated high affinity huCLIP], the Kd [1] is reported as 24.5 nM, the Kd [2] is reported as 510 nM and the Kd [3] is reported as 14.4 nM. The Kd [4] was 109 nM, the Kd [5] was 6.09 nM and the Kd [6] was 183 nM. For the same binder, the Kd [7] was 30.9 nM, the Kd [8] was 380 nM and the Kd [9] was 16.8 nM. It also gave a Kd [10] of 87.9 nM, a Kd [11] of 7.1 nM and a Kd [12] of 200 nM. For the same binder, the Kd [13] was 8.7 nM.
